In assay [1] the target is Brush border membrane vesicles (BBMV) prepared from midguts of third instar western corn rootworm (Diabrotica virgifera virgifera LeConte) larvae; putative receptor(s) on the BBMV (Diabrotica virgifera virgifera).
Assay [2] shares this target. The source holds these as a separate data set.

Turning to “Cry3Aa trypsin core (trypsin-truncated Cry3Aa core protein) (from UniProt P0A379 159-644)”, the Bmax (binding site concentration) (pmole/ug BBMV) in assay [1] came out at 146. Besides, the Kd in assay [2] worked out at 24 nM.

As to “Cry35Ab1 chymotrypsin core (chymotrypsin-truncated Cry35Ab1 core protein) (from UniProt Q939S9 1-354)”, in assay [1], the Bmax (binding site concentration) (pmole/ug BBMV) is 31.7. Moreover, the Kd in assay [2] is 2.31 nM.

A word on the Kd: it is the constant that tells how readily two partners part at equilibrium. The low end stands for a tighter complex, the high end for a looser complex.

For the origin of these results see US20190203224A1.
